Measured values reported in the Immune Epitope Database (IEDB).

Columns and labels:
HLA-A*02:02 = test: IEDB peptide-MHC binding, purified MHC/competitive/radioactivity; filed as Kd, often an IC50 or EC50 that approximates it; ≥ and ≤ were set here for values at or beyond the usual limits of such assays
HLA-A*02:03 = test: as above
HLA-A*02:06 = test: as above
HLA-A*02:01 [1] = test: IEDB peptide-MHC binding, purified MHC/competitive/fluorescence; ≥ and ≤ were set here for values at or beyond the usual limits of such assays
HLA-A*30:01 = test: IEDB peptide-MHC binding, purified MHC/competitive/radioactivity; filed as Kd, often an IC50 or EC50 that approximates it; ≥ and ≤ were set here for values at or beyond the usual limits of such assays
HLA-A*02:01 [2] = test: IEDB peptide-MHC binding, purified MHC/direct/fluorescence; filed as Kd, often an IC50 or EC50 that approximates it; ≥ and ≤ were set here for values at or beyond the usual limits of such assays
HLA-A*03:01 [3] = test: IEDB peptide-MHC binding, purified MHC/competitive/radioactivity; filed as Kd, often an IC50 or EC50 that approximates it; ≥ and ≤ were set here for values at or beyond the usual limits of such assays
HLA-A*30:02 = test: as above; conditions: source organism: Dengue virus 2 Jamaica/1409/1983
HLA-A*23:01 = test: as above
HLA-A*11:01 = test: as above; conditions: source organism: Dengue virus 2 Jamaica/1409/1983
HLA-A*31:01 = test: as above; conditions: source organism: Mammarenavirus brazilense
HLA-A*68:01 = test: as above; conditions: source organism: Mammarenavirus brazilense
HLA-A*33:01 = test: as above; conditions: source organism: Mammarenavirus brazilense
HLA-A*26:01 = test: as above
HLA-A*03:01 [4] = test: IEDB peptide-MHC binding, purified MHC/direct/fluorescence; filed as Kd, often an IC50 or EC50 that approximates it; ≥ and ≤ were set here for values at or beyond the usual limits of such assays; conditions: source organism: Vibrio cholerae
HLA-B*58:01 = test: as above; conditions: source organism: Mycobacterium tuberculosis variant bovis
HLA-A*01:01 = test: as above; conditions: source organism: Homo sapiens
[5] = source organism: Vaccinia virus WR
[6] = source organism: Zaire ebolavirus
[7] = source organism: Dengue virus 1 Brazil/97-11/1997
[8] = source organism: Dengue virus 2 Jamaica/1409/1983
[9] = source organism: Lymphocytic choriomeningitis virus (strain Armstrong)
[10] = source organism: Mammarenavirus brazilense
[11] = source organism: SARS coronavirus Tor2

| Sequence | Kd (HLA-A*02:02; [5]) [nM] | Kd (HLA-A*02:03; [5]) [nM] | Kd (HLA-A*02:06; [5]) [nM] | further results |
| --- | --- | --- | --- | --- |
| PLSINVSGV | 1120 | 45.3 | 17900 |  |
| PTNDIPSLFI | 11000 | ≥ 61800 | 14800 |  |
| PVLEKKVCAI | 541 | 1190 | 1050 |  |
| QDQDHTQEA |  |  |  | IC50 (HLA-A*02:01 [1]; [6]): ≥ 321000 nM |
| RFLAIPPTA |  |  |  | Kd (HLA-A*30:01; [7]): 127 nM |
| RILSEKRKDT | 711 | 4160 | 6860 |  |
| RLGPTLMCL |  |  |  | IC50 (HLA-A*02:01 [1]; source organism: Homo sapiens): 1780 nM |
| RMIAISAKV |  |  |  | Kd (HLA-A*02:01 [2]; source organism: Camelpox virus M-96): 3.4 nM |
| RQLTSNVDV | ≥ 50800 | 9760 | 170 |  |
| RSEELSFTV |  |  |  | IC50 (HLA-A*02:01 [1]; [6]): 2380 nM |
| RTIDAINKCV | 10800 | 334 | 341 |  |
| RTMPNESRV | 140 | 100 | 155 |  |
| RTRVGTKHA |  |  |  | Kd (HLA-A*30:01; [8]): 0.02 nM |
| RTTWSIHAK |  |  |  | Kd (HLA-A*30:01; [8]): 80.9 nM; Kd (HLA-A*03:01 [3]; [8]): 6.99 nM |
| RVAAEGINY |  |  |  | Kd (HLA-A*30:02): 48.4 nM |
| RVRYLTRNY |  |  |  | Kd (HLA-A*30:01; [5]): 5.62 nM |
| RVSTGSQLA |  |  |  | Kd (HLA-A*30:01; [7]): 81.3 nM |
| RVSTVSQLA |  |  |  | Kd (HLA-A*30:01; source organism: Dengue virus 1 Nauru/West Pac/1974): 355 nM |
| SFGCKPLTMF |  |  |  | Kd (HLA-A*23:01; [7]): 103 nM |
| SIAMLKSKNI | 1090 | 55 | 259 |  |
| SILASSLLK |  |  |  | Kd (HLA-A*30:01; [8]): 190 nM; Kd (HLA-A*11:01): 11 nM; Kd (HLA-A*03:01 [3]; [8]): 13.8 nM |
| SLIYYQNEVT | 77.2 | 606 | 4310 |  |
| SNSEDLLKAV |  |  |  | Kd (HLA-A*02:02; [9]): 17700 nM; Kd (HLA-A*02:03; [9]): 15200 nM; Kd (HLA-A*02:06; [9]): ≥ 10000 nM |

| Sequence | Kd (HLA-A*02:02; [5]) [nM] | Kd (HLA-A*02:03; [5]) [nM] | Kd (HLA-A*02:06; [5]) [nM] | further results |
| --- | --- | --- | --- | --- |
| SSQRDTILK |  |  |  | Kd (HLA-A*30:01; [10]): 46.5 nM; Kd (HLA-A*31:01): 2570 nM; Kd (HLA-A*68:01): 388 nM; Kd (HLA-A*33:01): ≥ 24200 nM; Kd (HLA-A*03:01 [3]; [10]): 270 nM |
| STIPETILEL |  |  |  | Kd (HLA-A*02:06; [8]): 79.6 nM; Kd (HLA-A*26:01; [8]): 831 nM |
| SVIDCNTCV |  |  |  | IC50 (HLA-A*02:01 [1]; source organism: Hepatitis C virus genotype 1): 5000 nM |
| TIAGGVCYYL | 0.036 | 34.3 | 4.01 |  |
| TIAVSVYGAI | 1550 | 582 | 5390 |  |
| TILATLNTL | 238 | 33.8 | 25.6 |  |
| TLILAGVSLL |  |  |  | Kd (HLA-A*26:01; source organism: Dengue virus 3 Martinique/1243/1999): 6690 nM |
| TLNRCALLR |  |  |  | Kd (HLA-A*03:01 [4]): 2230 nM |
| TTIAVSMAN |  |  |  | Kd (HLA-A*26:01; [8]): 5160 nM |
| TTTYKAFDW |  |  |  | Kd (HLA-B*58:01): 71.3 nM |
| TWLVHKQWFL |  |  |  | Kd (HLA-A*23:01; source organism: Dengue virus 4 Philippines/H241/1956): 124 nM |
| VDTRTPRPMP |  |  |  | Kd (HLA-A*30:01; source organism: Dengue virus 3 Sri Lanka/1266/2000): 415 nM |
| VLQQNNSFII | 665 | 1030 | 9650 |  |
| VMDKNHAIFT | 18700 | 11500 | ≥ 69800 |  |
| VVISVIFYFI | 239 | 755 | 542 |  |
| VVIVENDNV | 13200 | ≥ 38000 | 4300 |  |
| WLKDSAIMVA | 14.8 | 1320 | 4840 |  |
| WLLWPVTLA |  |  |  | Kd (HLA-A*02:02; [11]): 11.8 nM; Kd (HLA-A*02:03; [11]): 1.2 nM; Kd (HLA-A*02:06; [11]): 17.4 nM |
| YAVLSEYET | 1780 | ≥ 35100 | 1330 |  |
| YLDFGGPEG |  |  |  | Kd (HLA-A*02:01 [2]; source organism: Homo sapiens): 1500 nM; Kd (HLA-A*01:01): 2460 nM |
| YMDDRDINP |  |  |  | IC50 (HLA-A*02:01 [1]; source organism: Vaccinia virus): 27100 nM |
| YVSSSYKDI | 5040 | 1200 | 16600 |  |
